doi:10.1101/2025.05.11.653314

Target: U. parvum Smc (Ureaplasma parvum)
Test: cross-linking

stoichiometry N: 2
Substance: U. parvum Smc (enzyme)
